Experimental data published in IntAct's records for PubMed 16595635.

Experiments:
tnfl6_human FASLG [1] = target: tnfl6_human FASLG (UniProt P48023)
tnfl6_human FASLG [2] = target: tnfl6_human FASLG (UniProt P48023); remark: listed apart in the source
tnfl6_human FASLG [3] = target: tnfl6_human FASLG (UniProt P48023); remark: listed apart in the source

Sequence of UniProt P48023 (P48023 whole entry): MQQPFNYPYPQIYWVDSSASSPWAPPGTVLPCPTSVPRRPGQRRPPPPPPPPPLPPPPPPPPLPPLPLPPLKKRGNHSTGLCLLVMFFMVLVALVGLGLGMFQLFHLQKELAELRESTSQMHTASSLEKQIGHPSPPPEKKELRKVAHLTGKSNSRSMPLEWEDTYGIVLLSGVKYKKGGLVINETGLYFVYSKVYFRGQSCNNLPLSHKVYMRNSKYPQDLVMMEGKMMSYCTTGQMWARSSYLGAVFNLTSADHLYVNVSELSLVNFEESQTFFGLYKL

Substance | effect of a mutation on the interaction (tnfl6_human FASLG [1]) | effect of a mutation on the interaction (tnfl6_human FASLG [2]) | effect of a mutation on the interaction (tnfl6_human FASLG [3])
SH2/SH3 adapter protein NCK1 (Homo sapiens) (from UniProt P16333-1) W38K;W143K;W229K | disrupting interaction strength | disrupting interaction strength | 
SH2/SH3 adapter protein NCK1 (Homo sapiens) (from UniProt P16333-1) W143K |  |  | disrupting interaction strength
SH2/SH3 adapter protein NCK1 (Homo sapiens) (from UniProt P16333-1) W229K |  |  | disrupting interaction strength
